6 molecules from paper PMC12522135, “Engineering a Coiled-Coil Protein for DARPin Presentation as a Potent SARS-CoV‑2 Therapeutic” (Biomacromolecules, 2025) can be followed below.

Bounds are passed on as bounds.

For the assay, the target named is SARS-CoV-2 RBD protein (SARS-CoV-2 (Wuhan-Hu-1), UniProt P0DTC2 319-541). Nature of the assay: BLI. To be noted: both partners purified.

B1: Linear D2 (designed binder)
chain: DLGKKLLQAARAGQLDEVRELLKAGADVNAKDREGKTPLHVAAQEGHLEIVEVLLKAGADVNAKDVWGRTPLHLAAWIGHLEIVEVLLKAGADVNAKDVSGATPLHAAALHGHLEIVEVLLNAGADVNAQDKSGKTPADLAARAGHQDIAEVLQKAAGGGSGGGSGGGSGGGSDLGKKLLQAARAGQLDEVRELLKAGADVNAKDREGKTPLHVAAQEGHLEIVEVLLKAGADVNAKDVWGRTPLHLAAWIGHLEIVEVLLKAGADVNAKDVSGATPLHAAALHGHLEIVEVLLNAGADVNAQDKSGKTPADLAARAGHQDIAEVLQKAAGGGSGGGSGGGSGGGSDLGKKLLQAARAGQLDEVRELLKAGADVNAKDREGKTPLHVAAQEGHLEIVEVLLKAGADVNAKDVWGRTPLHLAAWIGHLEIVEVLLKAGADVNAKDVSGATPLHAAALHGHLEIVEVLLNAGADVNAQDKSGKTPADLAARAGHQDIAEVLQKAA
With B1, the Kd (commonly the concentration at which binding is half-saturated) is less than 1 pM.

B2: Linear D3 (designed binder)
chain: DLGKKLLQAARAGQLDEVRELLKAGADVNAKDQEGITPLHVAAHQGHLEIVEVLLKAGADVNAKDVWGRTPLHLAAWRGHLEIVEVLLKAGADVNAKDHAGATPLHAAALSGHLEIVEVLLKAGADVNAQDKSGKTPADLAARAGHQDIAEVLQKAAGGGSGGGSGGGSGGGSDLGKKLLQAARAGQLDEVRELLKAGADVNAKDQEGITPLHVAAHQGHLEIVEVLLKAGADVNAKDVWGRTPLHLAAWRGHLEIVEVLLKAGADVNAKDHAGATPLHAAALSGHLEIVEVLLKAGADVNAQDKSGKTPADLAARAGHQDIAEVLQKAAGGGSGGGSGGGSGGGSDLGKKLLQAARAGQLDEVRELLKAGADVNAKDQEGITPLHVAAHQGHLEIVEVLLKAGADVNAKDVWGRTPLHLAAWRGHLEIVEVLLKAGADVNAKDHAGATPLHAAALSGHLEIVEVLLKAGADVNAQDKSGKTPADLAARAGHQDIAEVLQKAA
With B2, the Kd was less than 1 pM.

B3: HEX-D2 (designed binder)
chain: DLGKKLLQAARAGQLDEVRELLKAGADVNAKDREGKTPLHVAAQEGHLEIVEVLLKAGADVNAKDVWGRTPLHLAAWIGHLEIVEVLLKAGADVNAKDVSGATPLHAAALHGHLEIVEVLLNAGADVNAQDKSGKTPADLAARAGHQDIAEVLQKAAGGGSGGGSGGGSGGGSGELKAIAQELKAIAKELKAIAWELKAIAQGAGGGGSGGGSGGGSGGGSDLGKKLLQAARAGQLDEVRELLKAGADVNAKDREGKTPLHVAAQEGHLEIVEVLLKAGADVNAKDVWGRTPLHLAAWIGHLEIVEVLLKAGADVNAKDVSGATPLHAAALHGHLEIVEVLLNAGADVNAQDKSGKTPADLAARAGHQDIAEVLQKAA
For the molecule B3, the Kd was less than 1 pM.

B4: HEX-D3 (designed binder)
chain: DLGKKLLQAARAGQLDEVRELLKAGADVNAKDQEGITPLHVAAHQGHLEIVEVLLKAGADVNAKDVWGRTPLHLAAWRGHLEIVEVLLKAGADVNAKDHAGATPLHAAALSGHLEIVEVLLKAGADVNAQDKSGKTPADLAARAGHQDIAEVLQKAAGGGSGGGSGGGSGGGSGELKAIAQELKAIAKELKAIAWELKAIAQGAGGGGSGGGSGGGSGGGSDLGKKLLQAARAGQLDEVRELLKAGADVNAKDQEGITPLHVAAHQGHLEIVEVLLKAGADVNAKDVWGRTPLHLAAWRGHLEIVEVLLKAGADVNAKDHAGATPLHAAALSGHLEIVEVLLKAGADVNAQDKSGKTPADLAARAGHQDIAEVLQKAA
B4 came in with a Kd of less than 1 pM.

B5: HEX-D1 (designed binder)
chain: DLGKKLLQAARAGQLDEVRELLKAGADVNAKDREGITPLHLAAQHGHLEIVEVLLKAGADVNAKDVWGRTPLHLAAWQGHLEIVEVLLKAGADVNAKDLAGATPLHVAALYGHLEIVEVLLKAGADVNAQDKSGKTPADLAARAGHQDIAEVLQKAAGGGSGGGSGGGSGGGSGELKAIAQELKAIAKELKAIAWELKAIAQGAGGGGSGGGSGGGSGGGSDLGKKLLQAARAGQLDEVRELLKAGADVNAKDREGITPLHLAAQHGHLEIVEVLLKAGADVNAKDVWGRTPLHLAAWQGHLEIVEVLLKAGADVNAKDLAGATPLHVAALYGHLEIVEVLLKAGADVNAQDKSGKTPADLAARAGHQDIAEVLQKAA
With B5, the Kd was less than 1 pM.

B6: Linear D1 (designed binder)
chain: DLGKKLLQAARAGQLDEVRELLKAGADVNAKDREGITPLHLAAQHGHLEIVEVLLKAGADVNAKDVWGRTPLHLAAWQGHLEIVEVLLKAGADVNAKDLAGATPLHVAALYGHLEIVEVLLKAGADVNAQDKSGKTPADLAARAGHQDIAEVLQKAAGGGSGGGSGGGSGGGSDLGKKLLQAARAGQLDEVRELLKAGADVNAKDREGITPLHLAAQHGHLEIVEVLLKAGADVNAKDVWGRTPLHLAAWQGHLEIVEVLLKAGADVNAKDLAGATPLHVAALYGHLEIVEVLLKAGADVNAQDKSGKTPADLAARAGHQDIAEVLQKAAGGGSGGGSGGGSGGGSDLGKKLLQAARAGQLDEVRELLKAGADVNAKDREGITPLHLAAQHGHLEIVEVLLKAGADVNAKDVWGRTPLHLAAWQGHLEIVEVLLKAGADVNAKDLAGATPLHVAALYGHLEIVEVLLKAGADVNAQDKSGKTPADLAARAGHQDIAEVLQKAA
Molecule B6 yielded a Kd of less than 1 pM.
